In paper PMC9813921 (Cell reports, 2022) one finds Kd, percent of cells with accumulation and PP1γ co-precipitated, percent of WT GFP-RRP1B data, which are given here for 8 molecules.

The target in test [1] is His6-tagged PP1α_(7–330) Q20R (UniProt P62136). Kind of test: SPR.
Test [2] deals with mCherry-LacRepressor-NLS-PP1γ (UniProt P36873). The test can be described thus: two-hybrid.
A further test addresses GFP-RRP1B_(RAxA) (human) (UniProt Q14684). The test can be described thus: co-IP.
The target in test [3] is GFP-RRP1B_(S702D) (human) (UniProt Q14684). The test can be described thus: co-IP.
A further test has as its target His6-tagged PP1γ_(7–308) (UniProt P36873 7-308). The test can be described thus: ITC.
The target of test [4] is His6-tagged PP1α_(7–330) Q20R (UniProt P62136 7-330, Q20R). Kind of test: SPR.
The next test deals with His6-tagged PP1γ_(7–323) (UniProt P36873 7-323). The test can be described thus: ITC.
A further test concerns the target His6-tagged PP1α_(7–330) (UniProt P62136 7-330). The test can be described thus: ITC.

Sequence of His6-tagged PP1α_(7–330) Q20R (UniProt P62136 7-330, Q20R) (P62136 7-330 Q20R): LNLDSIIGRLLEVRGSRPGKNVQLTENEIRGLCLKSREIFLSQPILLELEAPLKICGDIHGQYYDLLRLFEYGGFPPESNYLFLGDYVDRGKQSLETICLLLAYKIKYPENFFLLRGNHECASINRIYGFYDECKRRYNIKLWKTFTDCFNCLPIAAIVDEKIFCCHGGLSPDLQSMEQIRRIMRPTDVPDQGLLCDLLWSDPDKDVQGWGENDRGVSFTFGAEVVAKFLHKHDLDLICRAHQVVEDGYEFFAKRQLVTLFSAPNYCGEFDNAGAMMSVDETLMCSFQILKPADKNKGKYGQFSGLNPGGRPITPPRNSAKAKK
Sequence of His6-tagged PP1α_(7–330) Q20R (UniProt P62136) (P62136 7-330 Q20R): as above
Sequence of His6-tagged PP1γ_(7–308) (P36873 7-308): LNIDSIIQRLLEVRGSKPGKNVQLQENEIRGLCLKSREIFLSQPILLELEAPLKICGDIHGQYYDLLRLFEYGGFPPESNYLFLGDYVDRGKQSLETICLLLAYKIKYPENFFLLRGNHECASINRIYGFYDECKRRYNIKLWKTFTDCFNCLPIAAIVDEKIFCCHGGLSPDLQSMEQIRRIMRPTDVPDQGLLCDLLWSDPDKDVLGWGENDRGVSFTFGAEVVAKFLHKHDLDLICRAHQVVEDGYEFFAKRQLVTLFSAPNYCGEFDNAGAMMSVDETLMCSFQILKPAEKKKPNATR
Sequence of His6-tagged PP1α_(7–330) (P62136 7-330): as the sequence (P62136 7-330 Q20R) above, with R14Q counted along it
Sequence of mCherry-LacRepressor-NLS-PP1γ (P36873 whole entry): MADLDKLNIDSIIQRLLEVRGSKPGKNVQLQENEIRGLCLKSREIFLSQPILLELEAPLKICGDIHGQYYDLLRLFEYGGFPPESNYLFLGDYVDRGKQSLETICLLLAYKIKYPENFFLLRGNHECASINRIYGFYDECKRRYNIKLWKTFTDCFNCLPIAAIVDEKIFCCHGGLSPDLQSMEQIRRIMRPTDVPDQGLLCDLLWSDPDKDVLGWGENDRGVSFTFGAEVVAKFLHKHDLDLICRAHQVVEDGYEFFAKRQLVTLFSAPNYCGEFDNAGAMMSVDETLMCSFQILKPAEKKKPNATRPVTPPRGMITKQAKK
Sequence of His6-tagged PP1γ_(7–323) (P36873 7-323): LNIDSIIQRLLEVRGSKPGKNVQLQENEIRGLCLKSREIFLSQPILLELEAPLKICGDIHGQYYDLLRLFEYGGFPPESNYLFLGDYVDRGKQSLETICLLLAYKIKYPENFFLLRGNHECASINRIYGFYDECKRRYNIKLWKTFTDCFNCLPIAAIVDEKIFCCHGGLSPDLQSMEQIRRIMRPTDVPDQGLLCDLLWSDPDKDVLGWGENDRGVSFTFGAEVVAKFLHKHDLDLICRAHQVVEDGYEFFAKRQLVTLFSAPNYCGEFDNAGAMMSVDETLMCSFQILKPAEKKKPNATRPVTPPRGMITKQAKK

As to “RRP1B_(682–727) S702D (from UniProt Q14684) (domain or fragment)”, in test [1], the equilibrium dissociation constant (Kd) is 329 nM.

For “GFP-RRP1B_(S702D) (from UniProt Q14684) (natural protein)”, in test [2], the percent of cells with accumulation at the gene locus worked out at 7%.

Consider “PP1γ, endogenous (from UniProt P36873 1-323) (enzyme)”, for which the PP1γ co-precipitated, percent of WT GFP-RRP1B with GFP-RRP1B_(RAxA) (human) stood at 2.1%; in test [3], 4.6%.

The molecule “RRP1B_(682–727) F715A (from UniProt Q14684) (domain or fragment)” displayed a Kd in test [1] of 157 nM.

B1: RRP1B_(677–736) (domain or fragment)
chain: TPSSSKKVTFGLNRNMTAEFKKTDKSILVSPTGPSRVAFDPEQKPLHGVLKTPTSSPASS
The molecule B1 had an equilibrium dissociation constant (Kd) in the test with His6-tagged PP1γ_(7–308) of 22.6 nM.

As for KKVTFGLNRNMTAEFKKTDKSILVSPTGPSRVAFDPEQKPLH (domain or fragment) [RRP1B_(682–723)], the affinity in test [4], expressed as Kd, was 114 nM.

Regarding KKVTFGLNRNMTAEFKKTDKSILVSPTGPSRVAFDPEQKPLHGVLK (domain or fragment) [RRP1B_(682–727)], in test [4], the Kd was 22.5 nM.

B2: RRP1B_(657–758) (domain or fragment)
chain: RRAKSSTATHPPGPAVQLNKTPSSSKKVTFGLNRNMTAEFKKTDKSILVSPTGPSRVAFDPEQKPLHGVLKTPTSSPASSPLVAKKPLTTTPRRRPRAMDFF
Regarding B2, the Kd with His6-tagged PP1γ_(7–323) worked out at 40 nM; in the test with His6-tagged PP1α_(7–330), 888 nM; with His6-tagged PP1γ_(7–308), 17.6 nM.
